Experiments:
[1] = molecular target: (NVDP)3(NANP)2 (Plasmodium falciparum); experiment: SPR, antibody on chip
[2] = molecular target: (NANP)6 (Plasmodium falciparum); experiment: SPR, antibody on chip
[3] = molecular target: (NPNA)3 (Plasmodium falciparum); experiment: SPR, antibody on chip
[4] = molecular target: … (Plasmodium falciparum); experiment: SPR, antibody on chip
[5] = molecular target: NANPNVDP (Plasmodium falciparum); experiment: BLI, target on sensor
[6] = molecular target: (NVDP)3(NANP)2 (Plasmodium falciparum); experiment: BLI, target on sensor
[7] = molecular target: (NANP)6 (Plasmodium falciparum); experiment: BLI, target on sensor
[8] = molecular target: (NPNA)3 (Plasmodium falciparum); experiment: BLI, target on sensor
[9] = molecular target: … (Plasmodium falciparum); experiment: BLI, target on sensor

Binder | Kd [1] [nM] | Kd [2] [nM] | Kd [3] [nM] | Kd [4] [nM] | Kd [5] [nM] | Kd [6] [nM] | Kd [7] [nM] | Kd [8] [nM] | Kd [9] [nM]
AB-007054 (antibody, V domains shown) VH: QMQLVESGGGVVQPGRSLRLSCTASGFTFSTYAMHWVRQSPGQGLQWVAVISYHSTNKYYEDSVRGRFTISRDNSKNTLYLQMNSLRAEDTAVYYCARDGYASSFFDFWGQGTLVTVSS VL: DIQMTQSPSTLSASVGDRVAITCRASQSISRWLAWYQQQPGKAPKLLMSGASVLESGVPSRFSGSGSGTEFTLTISSLQPDDFATYYCQHYNSYFVTFGQGTKVEIK | 5670 | 0.0552 | 10.5 | 17600 | 13.7 | 10.2 | 1.72 | 0.61 | 8.5
AB-007057 (antibody, V domains shown) VH: QMQLVESGGGVVQPGRSLRLSCTASGFTFSTYAMHWVRQSPGQGLQWVAVISYHSTNKYYEDSVRGRFTISRDNSKNTLYLQMNSLRAEDTAVYYCARDGYHSSFFDFWGQGTLVTVSS VL: DIQMTQSPSTLSASVGDRVAITCRASQSISRWLAWYQQQPGKAPKLLMSGASVLESGVPSRFSGSGSGTEFTLTISSLQPDDFATYYCQHYNSYFVTFGQGTKVEIK | 9090 | 0.0419 | 40.3 | 20100 | 15.3 | 11.2 | 0.976 | 0.311 | 10.5

Source: patent US20220195023A1
